Measurements: patent publication US12331334B2

Biological target: human C3 FRET peptide

With “WT uPA with C122S - HSA (No PP) (enzyme)” the Activity (nM EDANS/min/µL sample), expi293 supernatant on 40 µM human C3 FRET peptide (nM EDANS/min/µL sample) was 0.1.

“WT uPA with C122S-Fc (No PP) (Fc fusion)” was tested, and the Activity (nM EDANS/min/µL sample), expi293 supernatant on 40 µM human C3 FRET peptide (nM EDANS/min/µL sample) was 0.
